Results as given in article PMC7708983, “A combined NMR and EPR investigation on the effect of the disordered RGG regions in the structure and the activity of the RRM domain of FUS”.

Molecular target: FUS165-422 (RGG1-RRM-RGG2) (UniProt P35637 165-422)
Test: NMR 1H-15N HSQC chemical shift changes; 1:1 molar ratio; largest shifts near residues 286, 326, 369; 20 mM MES pH 6.5, 150 mM NaCl, RNase free; CW-EPR at room temperature; NMR temperature not given in the material
Details: protein: recombinant; tags: His-MBP tag removed by TEV; hairpin

Chain of FUS165-422 (RGG1-RRM-RGG2) (P35637 165-422): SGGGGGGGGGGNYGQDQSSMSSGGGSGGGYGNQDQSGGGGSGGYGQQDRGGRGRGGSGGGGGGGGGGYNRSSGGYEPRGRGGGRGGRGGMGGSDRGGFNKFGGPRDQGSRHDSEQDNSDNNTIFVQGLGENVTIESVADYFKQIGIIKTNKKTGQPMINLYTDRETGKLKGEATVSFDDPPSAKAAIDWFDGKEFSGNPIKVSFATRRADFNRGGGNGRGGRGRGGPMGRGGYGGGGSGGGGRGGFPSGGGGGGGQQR

GGCAGAUUACAAUUCUAUUUGCC (structured_RNA) [hnRNPA2/B1 stem-loop RNA]
binding result: binds
